In article doi:10.1101/2020.10.12.336495 (bioRxiv, 2020):

Biological target: the molecule itself
Experiment: cryo-EM structure

B1: Saccharomyces cerevisiae vacuolar transient receptor potential yeast 1 (TRPY1) channel, full length (natural protein, UniProt Q12324 1-675, looked up)
chain: MVSANGDLHLPISNEQCMPENNGSLGFEAPTPRQILRVTLNLKYLIDKVVPIVYDPNDIVCDHSEILSPKVVKLAYEACGGNPKDKANKRKYQSVIIFSLLKVCEWYSILATMEVHNAKLYETRNLASQQLCKLLIEREETRDLQFLFMQLLLRRYVINENDEDQEPLNALELATDMHCTTVIGSSGFQRCLKWIWRGWIVQNGLDPTTFIKDDSLAEVSLISHFNPVRLKAPVYQNYLQMIFSFLFLGLYTLVVNGKDSERVQSFDLLESIFYVFNTGFILDELTKLYYIGYAHLSFWNLFNDTTYLIITFAMGFRAMSVTPLNAKYSSEDWDKISYRVLSCAAPFVWSRLLLYLESQRFIGIMLVILKHMMKESIVFFFLLFLIMIGFTQGFLGLDSADGKRDITGPILGNLTITVLGLGSFDVFEEFAPPYAAILYYGYYFIVSVILLNILIALYSTAYQKVIDNADDEYMALMSQKTLRYIRAPDEDVYVSPLNLIEVFMTPIFRILPPKRAKDLSYTVMTIVYSPFLLLISVKETREARRIKYNRMKRLNDDANEYDTPWDLTDGYLDDDDGLFSDNRNSGMRATQLKNSRSLKLQRTAEQEDVHFKVPKKWYKNVKKCSPSFEQYDNDDTEDDAGEDKDEVKELTKKVENLTAVITDLLEKLDIKDKKE
stoichiometry N: 4
